Data published in patent US20190375826A1.
Like-named read-outs stand apart in the source and are kept apart here.

Key:
[1] = target: DENV4 NS1 (nonstructural protein 1 of dengue virus type 4 strain H241) (dengue virus serotype 4, strain H241)
[2] = target: DENV4 NS1 (nonstructural protein 1 of dengue virus type 4 strain H241) (dengue virus serotype 4, strain H241); remark: listed apart in the source
[3] = target: DENV3 NS1 (nonstructural protein 1 of dengue virus type 3 strain H87) (dengue virus serotype 3, strain H87)
[4] = target: DENV3 NS1 (nonstructural protein 1 of dengue virus type 3 strain H87) (dengue virus serotype 3, strain H87); remark: listed apart in the source
[5] = target: DENV2 NS1 (nonstructural protein 1 of dengue virus type 2 strain 16681) (dengue virus serotype 2, strain 16681)
[6] = target: DENV2 NS1 (nonstructural protein 1 of dengue virus type 2 strain 16681) (dengue virus serotype 2, strain 16681); remark: listed apart in the source

B1: mAb22-1.5 (antibody, V domains shown)
VH: EVQLQQSGPELVKPGASVKISCKASGYTFTDYNIHWVKQSPGKSLEWIGYIYPDNGDTGYNQIFKNKATLTVDTSSSAAYMELRSLTSEDSAVYYCVRRVLLDSWGQGTSVTVSS
VL: DIQMTQTTSSLSASLGDRVTISCSASQDINNFLNWYQQKPDGTIKLLIYYTSSLQSGVPSRFSGSGSGTDYSLTISNLEPEDIATYYCQQYSKLPRTFGGGTKLEIKR
B1 was tested, and the minimum detectable concentration of NS1 proteins [1] was 0.977 ng/mL and the minimum detectable concentration of NS1 proteins [2] was 62.5 ng/mL.

B2: mAb43-1.3 (antibody, V domains shown)
VH: GELQESGPQVVRPGTSVKISCKASGYSFSNYWMHWVKQRPGQGLEWIGVIDPSDSETRLNQKFKDKATLTVDKSSSTAYMQLSSPTSEDSAIYYCARSQFGLRFAYWGQGTLVTVSA
VL: DIVMTQSPSSMTVTAGEKVTMSCQSSQSLFNSGTQKNYLTWYQQKPGQPPKLLISWASTRDSGVPDRFTGSGSGTDFTLTINGVQAEDLAVYFCQNDYDSPYTFGGGTKLEIKR
With B2 the minimum detectable concentration of NS1 proteins [3] was 3.91 ng/mL and the minimum detectable concentration of NS1 proteins [4] was 62.5 ng/mL.

B3: mAb33-7.1 (antibody, V domains shown)
VH: EVQLQESGAELAKPGASVKMSCKASGYTFTSYWMHWVKQRPGQVLEWIGYINPNTGFTEYSQKFKDKATLTAVKSSSTAYIQLTSLTSDDSAVYYCARENYRYDGAMDYWGQGTSVTVSS
VL: DIVLTQSPALMAAFPGDRVTITCSVSSSVSSSNLHWYQQKSETSPKPWIYGTSTLASGVPVRFSGSGSGTSYSLTISSMEAEDAATYYCQQWSSYPLTFGAGTKLELKR
Binder B3 has a minimum detectable concentration of NS1 proteins [5] of 3.91 ng/mL and a minimum detectable concentration of NS1 proteins [6] of 62.5 ng/mL.
